± gives the uncertainty stated by the source.

This data set in a line: abundance fitness (aPCA) (normalised: wild type 0, dead -1); higher = more abundant; growth selection in yeast, the domain comes from the species named. Conditions: Saccharomyces cerevisiae (strain ATCC 204508 / S288c).
For the substance “E3 ubiquitin-protein ligase RSP5 T357S, P39940”, the abundance fitness was -0.1 ± 0.062.

On to “E3 ubiquitin-protein ligase RSP5 T357V, P39940”, for which the abundance fitness was -0.247 ± 0.059. Next, “E3 ubiquitin-protein ligase RSP5 T357W, P39940”: -0.695 ± 0.061; “E3 ubiquitin-protein ligase RSP5 T357Y, P39940”: -0.955 ± 0.31. Take “E3 ubiquitin-protein ligase RSP5 T358D, P39940”: the abundance fitness was -0.659 ± 0.091. Consider “E3 ubiquitin-protein ligase RSP5 T358E, P39940”, for which the abundance fitness was -0.761 ± 0.051. Next, “E3 ubiquitin-protein ligase RSP5 T358G, P39940”: -0.535 ± 0.044; “E3 ubiquitin-protein ligase RSP5 T358H, P39940”: -0.411 ± 0.076. With “E3 ubiquitin-protein ligase RSP5 T358I, P39940”, the abundance fitness is -1.07 ± 0.38. Next, “E3 ubiquitin-protein ligase RSP5 T358K, P39940”: -0.658 ± 0.12. Then “E3 ubiquitin-protein ligase RSP5 T358L, P39940”, with -0.886 ± 0.063; and “E3 ubiquitin-protein ligase RSP5 T358N, P39940”, with -0.767 ± 0.12. Then “E3 ubiquitin-protein ligase RSP5 T358P, P39940”, with -0.955 ± 0.067. With “E3 ubiquitin-protein ligase RSP5 T358Q, P39940”, the abundance fitness was -0.326 ± 0.057. Next, “E3 ubiquitin-protein ligase RSP5 T358R, P39940”: -0.781 ± 0.046.

Consider “E3 ubiquitin-protein ligase RSP5 T358S, P39940”, for which the abundance fitness was -0.028 ± 0.058. With “E3 ubiquitin-protein ligase RSP5 T358V, P39940”, the abundance fitness was -0.729 ± 0.071. Next, “E3 ubiquitin-protein ligase RSP5 T358W, P39940”: -0.626 ± 0.064. Next, “E3 ubiquitin-protein ligase RSP5 T358Y, P39940”: -0.633 ± 0.12; “E3 ubiquitin-protein ligase RSP5 V350A, P39940”: -0.275 ± 0.043. For the substance “E3 ubiquitin-protein ligase RSP5 V350C, P39940”, the abundance fitness was -0.097 ± 0.066. Then “E3 ubiquitin-protein ligase RSP5 V350D, P39940”, with -0.604 ± 0.11; and “E3 ubiquitin-protein ligase RSP5 V350E, P39940”, with -0.346 ± 0.057; and “E3 ubiquitin-protein ligase RSP5 V350F, P39940”, with 0.044 ± 0.13. Next, “E3 ubiquitin-protein ligase RSP5 V350G, P39940”: -0.891 ± 0.046. As to “E3 ubiquitin-protein ligase RSP5 V350K, P39940”, the abundance fitness is -0.537 ± 0.065. Then “E3 ubiquitin-protein ligase RSP5 V350L, P39940”, with 0.028 ± 0.048; and “E3 ubiquitin-protein ligase RSP5 V350M, P39940”, with 0.109 ± 0.085; and “E3 ubiquitin-protein ligase RSP5 V350N, P39940”, with -0.49 ± 0.095. Next, “E3 ubiquitin-protein ligase RSP5 V350Q, P39940”: -0.295 ± 0.066. Take “E3 ubiquitin-protein ligase RSP5 V350R, P39940”: the abundance fitness is -0.546 ± 0.042.

Turning to “E3 ubiquitin-protein ligase RSP5 V350S, P39940”, the abundance fitness was -0.502 ± 0.078. Then “E3 ubiquitin-protein ligase RSP5 V350W, P39940”, with -0.359 ± 0.057; and “E3 ubiquitin-protein ligase RSP5 V350Y, P39940”, with -0.136 ± 0.14; and “E3 ubiquitin-protein ligase RSP5 V360A, P39940”, with -0.161 ± 0.046. Next, “E3 ubiquitin-protein ligase RSP5 V360C, P39940”: -0.018 ± 0.062; “E3 ubiquitin-protein ligase RSP5 V360D, P39940”: -0.098 ± 0.056; “E3 ubiquitin-protein ligase RSP5 V360E, P39940”: -0.154 ± 0.053.

Take “E3 ubiquitin-protein ligase RSP5 V360F, P39940”: the abundance fitness was 0.058 ± 0.11. “E3 ubiquitin-protein ligase RSP5 V360H, P39940” returned an abundance fitness of 0.043 ± 0.059. Then “E3 ubiquitin-protein ligase RSP5 V360I, P39940”, with 0.186 ± 0.1; and “E3 ubiquitin-protein ligase RSP5 V360L, P39940”, with -0.03 ± 0.044; and “E3 ubiquitin-protein ligase RSP5 V360M, P39940”, with 0.022 ± 0.062.

“E3 ubiquitin-protein ligase RSP5 V360N, P39940”: the abundance fitness worked out at 0.014 ± 0.093.

“E3 ubiquitin-protein ligase RSP5 V360P, P39940”: the abundance fitness was -0.871 ± 0.061.

For the substance “E3 ubiquitin-protein ligase RSP5 V360Q, P39940”, the abundance fitness is -0.184 ± 0.15. As for “E3 ubiquitin-protein ligase RSP5 V360R, P39940”, the abundance fitness was -0.207 ± 0.041.

Regarding “E3 ubiquitin-protein ligase RSP5 V360T, P39940”, the abundance fitness is -0.095 ± 0.064. Turning to “E3 ubiquitin-protein ligase RSP5 V360W, P39940”, the abundance fitness is -0.06 ± 0.069.

“E3 ubiquitin-protein ligase RSP5 V360Y, P39940” returned an abundance fitness of 0.194 ± 0.084. As to “E3 ubiquitin-protein ligase RSP5 W337A, P39940”, the abundance fitness was -0.649 ± 0.06. Next, “E3 ubiquitin-protein ligase RSP5 W337C, P39940”: -0.4 ± 0.087; “E3 ubiquitin-protein ligase RSP5 W337D, P39940”: -0.504 ± 0.074. Next, “E3 ubiquitin-protein ligase RSP5 W337E, P39940”: -0.525 ± 0.066; “E3 ubiquitin-protein ligase RSP5 W337F, P39940”: -0.045 ± 0.093; “E3 ubiquitin-protein ligase RSP5 W337G, P39940”: -0.503 ± 0.051. With “E3 ubiquitin-protein ligase RSP5 W337H, P39940”, the abundance fitness was -0.539 ± 0.076. Regarding “E3 ubiquitin-protein ligase RSP5 W337I, P39940”, the abundance fitness was -0.23 ± 0.085. Regarding “E3 ubiquitin-protein ligase RSP5 W337K, P39940”, the abundance fitness was -0.713 ± 0.073. In the case of “E3 ubiquitin-protein ligase RSP5 W337L, P39940”, the abundance fitness is -0.53 ± 0.06. Take “E3 ubiquitin-protein ligase RSP5 W337N, P39940”: the abundance fitness was -0.641 ± 0.14. With “E3 ubiquitin-protein ligase RSP5 W337P, P39940”, the abundance fitness is -0.883 ± 0.061. For “E3 ubiquitin-protein ligase RSP5 W337Q, P39940”, the abundance fitness was -0.637 ± 0.11. Next, “E3 ubiquitin-protein ligase RSP5 W337R, P39940”: -0.771 ± 0.052; “E3 ubiquitin-protein ligase RSP5 W337S, P39940”: -0.622 ± 0.052; “E3 ubiquitin-protein ligase RSP5 W337Y, P39940”: -0.366 ± 0.1. Then “E3 ubiquitin-protein ligase RSP5 W359C, P39940”, with -0.336 ± 0.085; and “E3 ubiquitin-protein ligase RSP5 W359D, P39940”, with -0.225 ± 0.059; and “E3 ubiquitin-protein ligase RSP5 W359E, P39940”, with -0.271 ± 0.071.

Regarding “E3 ubiquitin-protein ligase RSP5 W359G, P39940”, the abundance fitness was -0.441 ± 0.045. For the substance “E3 ubiquitin-protein ligase RSP5 W359I, P39940”, the abundance fitness is -0.258 ± 0.1. Next, “E3 ubiquitin-protein ligase RSP5 W359K, P39940”: -0.446 ± 0.11; “E3 ubiquitin-protein ligase RSP5 W359L, P39940”: -0.203 ± 0.066; “E3 ubiquitin-protein ligase RSP5 W359N, P39940”: -0.198 ± 0.091. Next, “E3 ubiquitin-protein ligase RSP5 W359P, P39940”: -0.447 ± 0.059; “E3 ubiquitin-protein ligase RSP5 W359Q, P39940”: -0.278 ± 0.08. Then “E3 ubiquitin-protein ligase RSP5 W359R, P39940”, with -0.265 ± 0.067. Turning to “E3 ubiquitin-protein ligase RSP5 W359S, P39940”, the abundance fitness is -0.249 ± 0.049.

For “E3 ubiquitin-protein ligase RSP5 W359T, P39940”, the abundance fitness is -0.342 ± 0.055. Then “E3 ubiquitin-protein ligase RSP5 W359V, P39940”, with -0.416 ± 0.045; and “E3 ubiquitin-protein ligase RSP5 W359Y, P39940”, with 0.171 ± 0.08.

Turning to “E3 ubiquitin-protein ligase RSP5 Y348A, P39940”, the abundance fitness is -0.936 ± 0.073. As to “E3 ubiquitin-protein ligase RSP5 Y348C, P39940”, the abundance fitness was -0.574 ± 0.09. Consider “E3 ubiquitin-protein ligase RSP5 Y348D, P39940”, for which the abundance fitness was -0.879 ± 0.091. Next, “E3 ubiquitin-protein ligase RSP5 Y348E, P39940”: -0.664 ± 0.062. Then “E3 ubiquitin-protein ligase RSP5 Y348F, P39940”, with -0.146 ± 0.09.

As to “E3 ubiquitin-protein ligase RSP5 Y348G, P39940”, the abundance fitness was -0.796 ± 0.043.

As for “E3 ubiquitin-protein ligase RSP5 Y348H, P39940”, the abundance fitness is -0.699 ± 0.16. Then “E3 ubiquitin-protein ligase RSP5 Y348K, P39940”, with -0.666 ± 0.072. Then “E3 ubiquitin-protein ligase RSP5 Y348L, P39940”, with -0.504 ± 0.068; and “E3 ubiquitin-protein ligase RSP5 Y348M, P39940”, with -0.354 ± 0.092.

Values taken from the Human Domainome abundance scans (Beltran et al. 2025).
